Data as given in the RNAGym collection of RNA variant scans (doi:10.1073/pnas.2313332121).
Fewer inactive variants are shown than the library holds.

B1: TPR 5TU (parent)
chain: GGAUCUUCUCGAUCUAACAAAAAAGACAAAUCUGCCACAAAGCUUGAGAGCAUCUUCGGAUGCAGAGGCGGCAGCCUUCGGUGGCGCGAUAGCGCCAACGUUCUCAACUAUGACACGCAAAACGCGUGCUCCGUUGAAUGGAGUUUAUCAUG

Variants of: B1
Assay: polymerase ribozyme fitness, log enrichment relative to wild type (log ratio); higher = more active; in vitro selection for triplet polymerase activity
Summary of the method: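 Only genotypes with ≥10 input reads and ≥1 read per output were kept after Illumina sequencing of input and output libraries. These libraries were PCR-built, transcribed mutants of each subunit of a heterodimeric triplet polymerase ribozyme, each put through one triplicate in vitro selection round with frozen incubation at −7 °C, gel excision of extended constructs, streptavidin-bead capture and RT-PCR. Fitness is a logarithmic ratio of genotype enrichment to wild-type enrichment, from inverse-variance-weighted replicate averages, with the logarithm in base 2.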

Going from C27G C57G U61A A106C to C27U U101C, the “polymerase ribozyme fitness (log ratio)” value rises from ≤ -4.2 to -0.938.

Compared with A26U U44A C93A A142C, C27U A37C U56G is higher in “polymerase ribozyme fitness (log ratio)” value: ≤ -4.2 for the first, -2.92 for the second.

Going from A28C C32U U45A U61G U78G G92C C93A U101G C132A A150C to C27U A47U U53A, the “polymerase ribozyme fitness (log ratio)” value rises from ≤ -4.2 to -2.28.

A28U A60C A91G A98U and A29U G62C G70A A137U A138C cannot be ordered by “polymerase ribozyme fitness (log ratio)” value: ≤ -4.2 for the first, ≤ -4.2 for the second.

Compared with C27U C95A A138G, A26U G141U U144G is higher in “polymerase ribozyme fitness (log ratio)” value: ≤ -4.2 for the first, -3.78 for the second.

A28U A41C U61A C99A A122C and C27U U44A C54U U56A A60U U82A C85U A97C C105G A110C C118A cannot be ordered by “polymerase ribozyme fitness (log ratio)” value: ≤ -4.2 for the first, ≤ -4.2 for the second.

A26U C54G C87G A106G U130G and A28U U82G A137C cannot be ordered by “polymerase ribozyme fitness (log ratio)” value: ≤ -4.2 for the first, ≤ -4.2 for the second.

A29G C57G G136U and A28G A47U A49C C85A G136C U146G cannot be ordered by “polymerase ribozyme fitness (log ratio)” value: ≤ -4.2 for the first, ≤ -4.2 for the second.

Going from C27U A37G U104G to A29C C96A U102G G124U, the “polymerase ribozyme fitness (log ratio)” value falls from -4.08 to ≤ -4.2.

C27U G62C C63U G94U U104C G152U and C27A A52G C95A C129G G140U A142U cannot be ordered by “polymerase ribozyme fitness (log ratio)” value: ≤ -4.2 for the first, ≤ -4.2 for the second.

A28G C43G G83U C93A U135G and A28U C32G C87U C99G cannot be ordered by “polymerase ribozyme fitness (log ratio)” value: ≤ -4.2 for the first, ≤ -4.2 for the second.

A29G C93U A107G U148G and A28G A37U C57A C123U G143C cannot be ordered by “polymerase ribozyme fitness (log ratio)” value: ≤ -4.2 for the first, ≤ -4.2 for the second.

A28C G124C and A28G U44A U45A C76G U111C G133U cannot be ordered by “polymerase ribozyme fitness (log ratio)” value: ≤ -4.2 for the first, ≤ -4.2 for the second.

Compared with C27U G50U C95U C114U C118G A138U, C27U U53A G70U is higher in “polymerase ribozyme fitness (log ratio)” value: ≤ -4.2 for the first, -3.43 for the second.

A28C G81C G92U C103G and A28G U61G C75A C93U U104G U135A cannot be ordered by “polymerase ribozyme fitness (log ratio)” value: ≤ -4.2 for the first, ≤ -4.2 for the second.

A28C C87A A107C and A28U G42C G83C A121U cannot be ordered by “polymerase ribozyme fitness (log ratio)” value: ≤ -4.2 for the first, ≤ -4.2 for the second.

C27U G67A C75U G86C U144C C149A A150G and A26U C103A cannot be ordered by “polymerase ribozyme fitness (log ratio)” value: ≤ -4.2 for the first, ≤ -4.2 for the second.

Compared with C27G G152A, A28U C116G is higher in “polymerase ribozyme fitness (log ratio)” value: ≤ -4.2 for the first, -3.74 for the second.

C27G U44G G58C G71C C93G G94A U101A U102A and A28G U145C cannot be ordered by “polymerase ribozyme fitness (log ratio)” value: ≤ -4.2 for the first, ≤ -4.2 for the second.

A26U U45A A47C U61G C79G G80U A122G C129G and C27U A73G C79A G140C cannot be ordered by “polymerase ribozyme fitness (log ratio)” value: ≤ -4.2 for the first, ≤ -4.2 for the second.

A28G C51A G80A and A28G A73U cannot be ordered by “polymerase ribozyme fitness (log ratio)” value: ≤ -4.2 for the first, ≤ -4.2 for the second.

Going from A29U A97G A121G G140C to C27G G84A, the “polymerase ribozyme fitness (log ratio)” value rises from ≤ -4.2 to -3.69.

A29C A41G G46U A49G C75U G83A A121G G152U and C27G C76U G83A C85G A107U A119U G141A cannot be ordered by “polymerase ribozyme fitness (log ratio)” value: ≤ -4.2 for the first, ≤ -4.2 for the second.

A29U G46C G50C C95G C114G and A29C A30U A89C cannot be ordered by “polymerase ribozyme fitness (log ratio)” value: ≤ -4.2 for the first, ≤ -4.2 for the second.

First: A29G U31C A52G C57U C85U C87A A150U
Second: C27U G46A C54U C85G
The “polymerase ribozyme fitness (log ratio)” value of the first is lower: ≤ -4.2 for the first, -3.63 for the second.

A26U G42C G50U C93A A115U G117C and A29U G50U U55A G86C G141C cannot be ordered by “polymerase ribozyme fitness (log ratio)” value: ≤ -4.2 for the first, ≤ -4.2 for the second.

First: C27U G58A C63A G84U
Second: C27G A49G A52C U82G A91G
The “polymerase ribozyme fitness (log ratio)” value of the first is higher: -2.45 for the first, ≤ -4.2 for the second.

A28U C51A C54U C85U C123G C129U and C27G G143C A150G cannot be ordered by “polymerase ribozyme fitness (log ratio)” value: ≤ -4.2 for the first, ≤ -4.2 for the second.

A29U C54U U78C C99G C116U and A29C G68A G92C G133A cannot be ordered by “polymerase ribozyme fitness (log ratio)” value: ≤ -4.2 for the first, ≤ -4.2 for the second.

A29U A40G U53A C95G and C27A C43A A60U C87A G143U cannot be ordered by “polymerase ribozyme fitness (log ratio)” value: ≤ -4.2 for the first, ≤ -4.2 for the second.

A26U U31G C36U G81U C149G and A29C C54U G84A A97U cannot be ordered by “polymerase ribozyme fitness (log ratio)” value: ≤ -4.2 for the first, ≤ -4.2 for the second.

Going from A29C A52C C76U C96A U135G A147C to A28C C108A G136A, the “polymerase ribozyme fitness (log ratio)” value falls from -4.08 to ≤ -4.2.

A29C C57U U104G G128U and A28U A49C U56A C95A C96U C108U G128U cannot be ordered by “polymerase ribozyme fitness (log ratio)” value: ≤ -4.2 for the first, ≤ -4.2 for the second.

C27G G46A A64C U77G G88U A121U and A29C C63A C87U U101C A115C G117C G133A cannot be ordered by “polymerase ribozyme fitness (log ratio)” value: ≤ -4.2 for the first, ≤ -4.2 for the second.

A28U C51A A52C C76U U78G A89G and A26U C51U A89G C105G U134G U144A cannot be ordered by “polymerase ribozyme fitness (log ratio)” value: ≤ -4.2 for the first, ≤ -4.2 for the second.

C27G U44G A89C A142U and A29C C69G C103G U151G cannot be ordered by “polymerase ribozyme fitness (log ratio)” value: ≤ -4.2 for the first, ≤ -4.2 for the second.

Going from A26U C38A to A29G G68C C96U U102G U135G C149A, the “polymerase ribozyme fitness (log ratio)” value falls from -2.37 to ≤ -4.2.

C27U C76G G88A C93G G100U and A29U C76G U82G G88C cannot be ordered by “polymerase ribozyme fitness (log ratio)” value: ≤ -4.2 for the first, ≤ -4.2 for the second.

A28U A52C and A29G U53A are within 0.2 log units of each other in “polymerase ribozyme fitness (log ratio)” value: -3.54 for the first, -3.63 for the second.

A29U G59C A64G C96G U104C U109G and C27U U45A G81A G124U cannot be ordered by “polymerase ribozyme fitness (log ratio)” value: ≤ -4.2 for the first, ≤ -4.2 for the second.

A29C U31G C95A A119G A142C G152U and C27G C75A C79G G92U A121C C131G A147C cannot be ordered by “polymerase ribozyme fitness (log ratio)” value: ≤ -4.2 for the first, ≤ -4.2 for the second.

For C27U A30U U55A G65U U102C A110G U111G C131A U134A, the “polymerase ribozyme fitness (log ratio)” value was ≤ -4.2.
